What follows are substances tested against active 62 kDa MMP-2 (UniProt P08253) (assay: fluorometric MMP-2 activity assay, competitive inhibition fit; TIMP-2 0-2.5 nM, substrate 0.83-6.66 µM).
Sequence of active 62 kDa MMP-2 (P08253 110-660 limits assumed): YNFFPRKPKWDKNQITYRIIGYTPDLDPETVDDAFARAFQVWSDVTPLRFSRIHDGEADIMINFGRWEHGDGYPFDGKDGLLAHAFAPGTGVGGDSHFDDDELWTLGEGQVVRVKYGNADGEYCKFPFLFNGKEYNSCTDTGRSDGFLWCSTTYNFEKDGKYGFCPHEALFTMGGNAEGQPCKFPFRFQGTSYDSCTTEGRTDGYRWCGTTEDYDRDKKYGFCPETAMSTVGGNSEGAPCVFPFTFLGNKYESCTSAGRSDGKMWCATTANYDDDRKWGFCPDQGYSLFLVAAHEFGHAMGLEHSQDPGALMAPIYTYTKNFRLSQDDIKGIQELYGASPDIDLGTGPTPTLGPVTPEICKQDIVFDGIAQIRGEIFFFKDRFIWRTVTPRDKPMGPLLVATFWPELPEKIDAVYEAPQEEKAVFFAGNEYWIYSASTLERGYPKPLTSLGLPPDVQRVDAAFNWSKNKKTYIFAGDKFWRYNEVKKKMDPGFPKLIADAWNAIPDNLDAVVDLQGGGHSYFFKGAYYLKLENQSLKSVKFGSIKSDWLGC

Sequence of wild type human TIMP-2 with C-terminal His6 tag (WT TIMP-2-His6) (P16035 other isoform, or with tags, fused parts or gaps): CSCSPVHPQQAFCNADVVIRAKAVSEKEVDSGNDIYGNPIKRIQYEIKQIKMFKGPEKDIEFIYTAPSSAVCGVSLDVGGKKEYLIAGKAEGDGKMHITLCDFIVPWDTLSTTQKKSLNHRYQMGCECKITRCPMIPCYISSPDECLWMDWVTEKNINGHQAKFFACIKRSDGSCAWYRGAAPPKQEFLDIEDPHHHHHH

Compared with “TIMP-2 Y90E-His6 (from UniProt P16035 27-220)”, “TIMP-2 Y90F-His6 (from UniProt P16035 27-220)” is 4.7-fold higher in Ki: 0.3 nM for the first, 1.4 nM for the second. The first binds more tightly here.

Substance “wild type human TIMP-2 with C-terminal His6 tag (WT TIMP-2-His6) (from UniProt P16035 27-220)” has a Ki of 1.5 nM.

— patent US20190322724A1
